US20250333514A1 (CDR LIFE, published 2025)
Where two headings read alike, the source gives them in different places.

How the values were obtained:
Assay in all cases: SPR (Biacore 8K), pMHC captured, Fab-scFv analyte
[1] = molecular target: T1, HLA-A*02:01/PRAME antigen (recombinant, … on HLA-A*02:01) (human, Complex biotinylated for SPR capture; site of biotin and any tag not stated, not in the letters.)
T1 construct: also called PRAME target; pMHC
Procedure: (§1) Recombinantly produced hits in Fab-scFv format, as described in Example 4, were evaluated for their ability to bind HLA-A*02:01/PRAME antigen. Binding characterization was performed by surface plasmon resonance (SPR) using a Biacore™ 8k (Cytiva) device. Briefly, 3000 RU of Biotin CAPture reagent (Cytiva) was immobilized on a Series S Sensor Chip CAP (Cytiva) and the biotinylated ligand HLA-A*02:01/PRAME (SEQ ID NO: 68) was diluted in HPS-EP+ running buffer (TEKNOVA) and captured for 300 s at a flow rate of 2 μL/min at flow cell 2 resulting in a ligand capture level of >100 RU. Subsequently, at least three consecutive analyte injections were performed at suitable concentrations applying the single-cycle-kinetics mode at a flow rate of 30 μL/min with an association time of 90 s and the dissociation time set to >400 s. The chip surface was regenerated according to the manufacturer's instructions. After reference flow cell signal and blank injections subtraction, the data was fit to a 1:1 Langmuir binding model to determine the association rate constant kₐ and dissociation rate constant kd and calculate the equilibrium dissociation constant KD (kd/kₐ), also denoted as affinity, using the Biacore™ Insight Evaluation software.
(§2) The molecular recognition profile of monovalent (Fab-scFv) antigen binding molecules M3076 and M3287 for HLA-A*02:01/PRAME binding (equivalent bivalent (Fab-(scFv)₂) antigen binding molecules are M3167 and M3292, respectively) were determined by SPR measurements with HLA-A*02:01 complexes loaded with PRAME peptide or peptides containing a single amino acid substitution to alanine, arginine or aspartic acid. The kinetic parameters for each HLA-A*02:01 complex loaded with a peptide was determined by SPR, according to the previously described method in Example 5.

[2] = molecular target: HLA-A*02:01 loaded with PRAME peptide L2A (human, Complex captured as in Example 5 (biotinylated ligand); biotin site or tag not stated, not in the letters.)
Procedure: as §1, §2

[3] = molecular target: HLA-A*02:01 loaded with PRAME peptide Q4A (human, Complex captured as in Example 5 (biotinylated ligand); biotin site or tag not stated, not in the letters.)
Procedure: as §1, §2

[4] = molecular target: HLA-A*02:01 loaded with PRAME peptide I7A (human, Complex captured as in Example 5 (biotinylated ligand); biotin site or tag not stated, not in the letters.)
Procedure: as §1, §2

[5] = molecular target: T1, HLA-A*02:01/PRAME antigen (recombinant, …); remark: listed apart in the source
Procedure: as §1, §2

[6] = molecular target: HLA-A*02:01 loaded with PRAME peptide S1D (human, pMHC ligand was biotinylated for capture (Example 5); site or tag of biotinylation not disclosed)
Procedure: as §1, §2

[7] = molecular target: HLA-A*02:01 loaded with PRAME peptide L2D (human, pMHC ligand was biotinylated for capture (Example 5); site or tag of biotinylation not disclosed)
Procedure: as §1, §2

[8] = molecular target: HLA-A*02:01 loaded with PRAME peptide L3D (human, pMHC ligand was biotinylated for capture (Example 5); site or tag of biotinylation not disclosed)
Procedure: as §1, §2

[9] = molecular target: HLA-A*02:01 loaded with PRAME peptide Q4D (human, pMHC ligand was biotinylated for capture (Example 5); site or tag of biotinylation not disclosed)
Procedure: as §1, §2

[10] = molecular target: HLA-A*02:01 loaded with PRAME peptide H5D (human, pMHC ligand was biotinylated for capture (Example 5); site or tag of biotinylation not disclosed)
Procedure: as §1, §2

[11] = molecular target: HLA-A*02:01 loaded with PRAME peptide L6D (human, Complex was biotinylated for capture on the SPR chip; site or tag of biotinylation not disclosed and not in the letters.)
Procedure: as §1, §2

[12] = molecular target: HLA-A*02:01 loaded with PRAME peptide I7D (human, Complex was biotinylated for capture on the SPR chip; site or tag of biotinylation not disclosed and not in the letters.)
Procedure: as §1, §2

[13] = molecular target: HLA-A*02:01 loaded with PRAME peptide G8D (human, Complex was biotinylated for capture on the SPR chip; site or tag of biotinylation not disclosed and not in the letters.)
Procedure: as §1, §2

[14] = molecular target: HLA-A*02:01 loaded with PRAME peptide L9D (human, Complex was biotinylated for capture on the SPR chip; site or tag of biotinylation not disclosed and not in the letters.)
Procedure: as §1, §2

Kd [1]	Kd [2]	Kd [3]	Kd [4]	Kd [5]	Kd [6]	binding result [7]	Kd [8]	Kd [9]	Kd [10]	binding result [11]	binding result [12]	binding result [13]	Kd [14]	Binder
80 pM	70 pM	180 pM	31000 pM	80 pM	60 pM	no binding	90 pM	340 pM	440 pM	no binding	no binding	no binding	830 pM	M3076 (bispecific antibody, Humanized variant of M2638, monovalent Fab-scFv; bivalent equivalent is M3167) heavy: EVQLVESGGGLVQPGGSLRLSCAASGFTFSTYAMNWVRQAPGKGLEWVGRIRSKYNNYATYYADSVKGRFTISRDDSKNTLYLQMNSLRAEDTAVYYCVRHGNFGDSYVSWFAYWGQGTLVTVSSASTKGPSVFPLAPSSKSTSGGTAALGCLVKDYFPEPVTVSWNSGALTSGVHTFPAVLQSSGLYSLSSVVTVPSSSLGTQTYICNVNHKPSNTKVDKKVEPKSCGGGGSDIQMTQSPSSLSASVGDRVTITCRSSQSVYNNLLGWYQQKPGKAPKLLIYSASTLASGVPSRFSGSGSGTDFTLTISSLQPEDFATYYCQGTYYNGDWYYPFGCGTKVEIKGGGGSGGGGSGGGGSGGGGSQVQLVESGGGSVQPGRSLRLSCAASGFDFSTYGVSWVRQAPGKCLEWIGYIDPVYGSTHYADSVKGRFTISRDNSKNTLYLQMNSLRAEDTASYYCVRDLYAGSSGYYMIYSLWGQGTSVTVSS light: QAVVTQEPSLTVSPGGTVTLTCGSSTGAVTTSNYANWVQQKPGKSPRGLIGGTNKRAPGVPARFSGSLLGGKAALTISGAQPEDEADYYCALWYSNHWVFGGGTKLTVLGQPKAAPSVTLFPPSSEELQANKATLVCLISDFYPGAVTVAWKADSSPVKAGVETTTPSKQSNNKYAASSYLSLTPEQWKSHRSYSCQVTHEGSTVEKTVAPTECS
570 pM	620 pM	1200 pM	100000 pM	570 pM	530 pM	no binding	630 pM	3400 pM	4600 pM	no binding	no binding	no binding	2700 pM	M3287 (bispecific antibody, Humanized variant of M2638, monovalent Fab-scFv; bivalent equivalent is M3292) heavy: EVQLVESGGGLVQPGGSLRLSCAASGFTFSTYAMNWVRQAPGKGLEWVGRIRSKYNNYATYYADSVKGRFTISRDDSKNTLYLQMNSLRAEDTAVYYCVRHGNFGDSYVSWFAYWGQGTLVTVSSASTKGPSVFPLAPSSKSTSGGTAALGCLVKDYFPEPVTVSWNSGALTSGVHTFPAVLQSSGLYSLSSVVTVPSSSLGTQTYICNVNHKPSNTKVDKKVEPKSCGGGGSDIQMTQSPSSLSASVGDRVTITCRSSQSVYNNLLGWYQQKPGKAPKLLIYSASTLASGVPSRFSGSGSGTDFTLTISSLQPEDSATYYCQGTYYTGDWYYPFGCGTKVEIKGGGGSGGGGSGGGGSGGGGSQVQLVESGGGSVQPGRSLRLSCAASGFDFSTYGVSWVRQAPGKCLEWIGYIDPVYGSTHYADSVKGRFTISRDNSKNTLYLQMNSLRAEDTASYYCVRDLYAGSSGYYVIYSLWGQGTSVTVSS light: QAVVTQEPSLTVSPGGTVTLTCGSSTGAVTTSNYANWVQQKPGKSPRGLIGGTNKRAPGVPARFSGSLLGGKAALTISGAQPEDEADYYCALWYSNHWVFGGGTKLTVLGQPKAAPSVTLFPPSSEELQANKATLVCLISDFYPGAVTVAWKADSSPVKAGVETTTPSKQSNNKYAASSYLSLTPEQWKSHRSYSCQVTHEGSTVEKTVAPTECS
